T1: recombinant human full-length TrpRS (SY variant) with C-terminal His6-tag
T1 chain: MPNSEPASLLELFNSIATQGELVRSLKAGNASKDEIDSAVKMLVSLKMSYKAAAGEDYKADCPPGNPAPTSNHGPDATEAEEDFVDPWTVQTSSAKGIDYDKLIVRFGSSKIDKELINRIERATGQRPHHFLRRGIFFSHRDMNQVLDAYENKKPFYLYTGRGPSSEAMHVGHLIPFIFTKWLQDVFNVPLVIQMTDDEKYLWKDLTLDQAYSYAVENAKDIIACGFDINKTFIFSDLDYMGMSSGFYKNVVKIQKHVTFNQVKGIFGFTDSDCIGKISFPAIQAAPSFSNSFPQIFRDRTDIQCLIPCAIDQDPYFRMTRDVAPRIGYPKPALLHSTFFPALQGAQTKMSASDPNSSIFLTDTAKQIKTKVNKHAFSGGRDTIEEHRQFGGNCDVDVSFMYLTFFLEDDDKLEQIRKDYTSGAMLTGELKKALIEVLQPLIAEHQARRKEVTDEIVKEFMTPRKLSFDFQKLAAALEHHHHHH


Columns and labels:
[1] = target: T1, recombinant human full-length TrpRS (SY …)
[2] = target: the molecule itself; test: SDS-PAGE, unheated against heated samples; band at roughly 86 kDa disappears on heating, band at roughly 43 kD remains

| Protein | cleavage seen on 12.5% SDS-polyacrylamide gels [1] | binding result [2] |
| --- | --- | --- |
| PMN elastase (protein) IVGGRRARPHAWPFMVSLQLRGGHFCGATLIAPNFVMSAAHCVANVNVRAVRVVLGAHNLSRREPTRQVFAVQRIFENGYDPVNLLNDIVILQLNGSATINANVQVAQLPAQGRRLGNGVQCLAMGWGLLGRNRGIASVLQELNVTVVTSLCRRSNVCTLVRGRQAGVCFGDSGSPLVCNGLIHGIASFVRGGCASGLYPDAFAPVAQFVNWIDSIIQ | cleavage of full-length TrpRS (SY variant) by PMN elastase generated a major fragment of about 46 kDa (SEQ ID NO: 25) and a minor fragment of about 43.5 kDa (SEQ ID NO: 24) |  |
| T2-TrpRS (SY variant, without 6-His tag) produced by E. coli expression of the vector of SEQ ID NO: 70 (pAS-001) (other, the entries describe two such monomers associating non-covalently into a dimer; also called T2-TrpRS product) SAKGIDYDKLIVRFGSSKIDKELINRIERATGQRPHHFLRRGIFFSHRDMNQVLDAYENKKPFYLYTGRGPSSEAMHVGHLIPFIFTKWLQDVFNVPLVIQMTDDEKYLWKDLTLDQAYSYAVENAKDIIACGFDINKTFIFSDLDYMGMSSGFYKNVVKIQKHVTFNQVKGIFGFTDSDCIGKISFPAIQAAPSFSNSFPQIFRDRTDIQCLIPCAIDQDPYFRMTRDVAPRIGYPKPALLHSTFFPALQGAQTKMSASDPNSSIFLTDTAKQIKTKVNKHAFSGGRDTIEEHRQFGGNCDVDVSFMYLTFFLEDDDKLEQIRKDYTSGAMLTGELKKALIEVLQPLIAEHQARRKEVTDEIVKEFMTPRKLSFDFQ |  | binds |
